For 1 substance, IC50, plaque neutralization assay on HEp2 cells with rabbit complement and affinity corresponding to the IC50 of the plaque neutralization assay results are on record in patent publication US20100285022A1.

For this assay, the target named is F protein on live RSV virus (strain not stated) (respiratory syncytial virus). Kind of assay: cell-based or functional assay.

Consider Synagis® (palivizumab) (antibody), for which the IC50, plaque neutralization assay on HEp2 cells with rabbit complement was determined as 300 ng/mL and the affinity corresponding to the IC50 of the plaque neutralization assay was 2 nM.
